Results as given in US20260209386A1 (MYTHIC THERAPEUTICS, published 2026).
Where a chain is given by its changes, count along the chain named.

T1: Human PTK7 Protein, His Tag, Acro Biosystems (human, UniProt Q13308 31-704)
T1 construct: Bought protein; also called CCK4; not shown: His tag
T1 sequence: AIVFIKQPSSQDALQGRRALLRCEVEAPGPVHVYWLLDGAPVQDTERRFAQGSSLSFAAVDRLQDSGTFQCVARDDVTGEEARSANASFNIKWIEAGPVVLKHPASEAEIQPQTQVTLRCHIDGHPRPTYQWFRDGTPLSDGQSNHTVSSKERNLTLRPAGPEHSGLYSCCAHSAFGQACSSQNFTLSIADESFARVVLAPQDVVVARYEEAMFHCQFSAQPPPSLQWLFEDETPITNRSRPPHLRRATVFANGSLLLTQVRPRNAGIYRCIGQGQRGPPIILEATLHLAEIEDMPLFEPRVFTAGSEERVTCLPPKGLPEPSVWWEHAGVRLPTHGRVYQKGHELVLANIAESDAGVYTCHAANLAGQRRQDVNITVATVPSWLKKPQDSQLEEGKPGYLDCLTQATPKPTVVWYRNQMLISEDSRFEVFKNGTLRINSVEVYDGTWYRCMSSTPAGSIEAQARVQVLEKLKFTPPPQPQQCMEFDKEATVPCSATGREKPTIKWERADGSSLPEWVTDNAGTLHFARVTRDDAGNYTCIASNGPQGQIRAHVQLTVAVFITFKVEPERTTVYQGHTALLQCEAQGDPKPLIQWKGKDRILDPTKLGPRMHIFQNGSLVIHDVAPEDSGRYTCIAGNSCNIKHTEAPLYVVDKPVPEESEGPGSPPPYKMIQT

T2: Human PTK7 Protein, His Tag, Acro Biosystems (human, UniProt Q13308 31-704)
T2 construct: Bought recombinant protein; also called CCK4; not shown: His tag
T2 sequence: T1 sequence

B1: MYT11181 (antibody, V domains shown)
VH: EVQLVESGGGLVQPGGSLRLSCTASGHDLSSYVMGWVRQAPGKGLEWVGYIYGGGGTYYATWARGRFTISRDTSKNTVYLQMNSLRAEDTAVYFCARAAADFYFNLWGQGTLVTVSS
VL: EIVMTQSPSTLSASVGDRVIITCQASQSISSYLAWYQQKPGKAPKLLIYDISDLASGVPSRFSGSGSGAEFTLTISSLQPDDFATYYCQSYYWISNSGAAFGQGTKLTVL
notes: HC variant of MYT9460, sub at HCV pos 27 (H1 02)
B2: MYT11186 (antibody, V domains shown)
VH: B1 VH with H27I, Y32H
VL: B1 VL
notes: HC variant of MYT9460, sub at HCV pos 32 (H1 07)
B3: MYT11187 (antibody, V domains shown)
VH: B1 VH with H27I, V33H
VL: B1 VL
notes: HC variant of MYT9460, sub at HCV pos 33 (H1 08)
B4: MYT11185 (antibody, V domains shown)
VH: B1 VH with H27I, S31H
VL: B1 VL
notes: HC variant of MYT9460, sub at HCV pos 31 (H1 06)
B5: MYT11188 (antibody, V domains shown)
VH: B1 VH with H27I, M34H
VL: B1 VL
notes: HC variant of MYT9460, sub at HCV pos 34 (H1 09)
B6: MYT11199 (antibody, V domains shown)
VH: B1 VH with H27I, Y59H
VL: B1 VL
notes: HC variant of MYT9460, sub at HCV pos 59 (H2 10)
B7: MYT11183 (antibody, V domains shown)
VH: B1 VH with H27I, L29H
VL: B1 VL
notes: HC variant of MYT9460, sub at HCV pos 29 (H1 04)
B8: MYT11201 (antibody, V domains shown)
VH: B1 VH with H27I, T61H
VL: B1 VL
notes: HC variant of MYT9460, sub at HCV pos 61 (H2 12)
B9: MYT11200 (antibody, V domains shown)
VH: B1 VH with H27I, A60H
VL: B1 VL
notes: HC variant of MYT9460, sub at HCV pos 60 (H2 11)
B10: MYT11198 (antibody, V domains shown)
VH: B1 VH with H27I, Y58H
VL: B1 VL
notes: HC variant of MYT9460, sub at HCV pos 58 (H2 09)
B11: MYT11275 (antibody, V domains shown)
VH: EVQLVESGGGLVQPGGSLRLSCTASGIDLSRYSMGWVRQAPGKGLEWVGIISYGGSTYYAHWAKGRFTISRDTSKNTVYLQMNSLRAEDTAVYFCARVGYPGYSGYGYAFDAFDPWGQGTLVTVSS
VL: EIVMTQSPSTLSASVGDRVIITCQSSKSVYNDNWLSWYQQKPGKAPKLLIYGASTLASGVPSRFSGSGSGAEFTLTISSLQPDDFATYYCAGGYSSSSDNGFGQGTKLTVL
notes: MYT9792 variant, His at VH 61 (H2 12)
B12: MYT11334 (antibody, V domains shown)
VH: B11 VH with H61S
VL: B11 VL with G101H
notes: MYT9792 variant, His at VL 101 (L3 11)
B13: MYT11301 (antibody, V domains shown)
VH: B11 VH with D28A, H61S
VL: B11 VL
notes: MYT9792 variant, Ala at VH 28 (H1 03)
B14: MYT11320 (antibody, V domains shown)
VH: B11 VH with H61S
VL: B11 VL with T55H
notes: MYT9792 variant, His at VL 55 (L2 04)
B15: MYT11290 (antibody, V domains shown)
VH: B11 VH with H61S, Y106H
VL: B11 VL
B16: MYT11319 (antibody, V domains shown)
VH: B11 VH with H61S
VL: B11 VL with S54H
notes: MYT9792 variant, His at VL 54 (L2 03)
B17: MYT11288 (antibody, V domains shown)
VH: B11 VH with H61S, S104H
VL: B11 VL
notes: MYT9792 variant, His at VH 104 (H3 09)
B18: MYT11336 (antibody, V domains shown)
VH: B11 VH with H61S
VL: B11 VL with D32A
notes: MYT9792 variant, Ala at VL 32 (L1 09)
B19: MYT11304 (antibody, V domains shown)
VH: B11 VH with H61S
VL: B11 VL with Q24H
notes: MYT9792 variant, His at VL 24 (L1 01)
B20: MYT11308 (antibody, V domains shown)
VH: B11 VH with H61S
VL: B11 VL with S28H
notes: MYT9792 variant, His at VL 28 (L1 05)
B21: MYT11299 (antibody, V domains shown)
VH: B11 VH with H61S, P115H
VL: B11 VL
B22: MYT11312 (antibody, V domains shown)
VH: B11 VH with H61S
VL: B11 VL with D32H
notes: MYT9792 variant, His at VL 32 (L1 09)
B23: MYT11317 (antibody, V domains shown)
VH: B11 VH with H61S
VL: B11 VL with G52H
notes: MYT9792 variant, His at VL 52 (L2 01)
B24: MYT11329 (antibody, V domains shown)
VH: B11 VH with H61S
VL: B11 VL with S96H
notes: MYT9792 variant, His at VL 96 (L3 06)
B25: MYT11276 (antibody, V domains shown)
VH: B11 VH with H61S, W62H
VL: B11 VL
notes: MYT9792 variant, His at VH 62 (H2 13)
B26: MYT11318 (antibody, V domains shown)
VH: B11 VH with H61S
VL: B11 VL with A53H
notes: MYT9792 variant, His at VL 53 (L2 02)
B27: MYT11278 (antibody, V domains shown)
VH: B11 VH with H61S, K64H
VL: B11 VL
notes: MYT9792 variant, His at VH 64 (H2 15)
B28: MYT11338 (antibody, V domains shown)
VH: B11 VH with H61S
VL: B11 VL with N100A
notes: MYT9792 variant, Ala at VL 100 (L3 10)
B29: MYT11306 (antibody, V domains shown)
VH: B11 VH with H61S
VL: B11 VL with S26H
notes: MYT9792 variant, His at VL 26 (L1 03)
B30: MYT11277 (antibody, V domains shown)
VH: B11 VH with H61S, A63H
VL: B11 VL
notes: MYT9792 variant, His at VH 63 (H2 14)
B31: MYT11314 (antibody, V domains shown)
VH: B11 VH with H61S
VL: B11 VL with W34H
notes: MYT9792 variant, His at VL 34 (L1 11)
B32: MYT11300 (antibody, V domains shown)
VH: B11 VH with H61S, F94Y
VL: B11 VL
B33: MYT11286 (antibody, V domains shown)
VH: B11 VH with H61S, G102H
VL: B11 VL
notes: MYT9792 variant, His at VH 102 (H3 07)
B34: MYT11298 (antibody, V domains shown)
VH: B11 VH with H61S, D114H
VL: B11 VL
B35: MYT11313 (antibody, V domains shown)
VH: B11 VH with H61S
VL: B11 VL with N33H
notes: MYT9792 variant, His at VL 33 (L1 10)
B36: MYT11323 (antibody, V domains shown)
VH: B11 VH with H61S
VL: B11 VL with S58H
notes: MYT9792 variant, His at VL 58 (L2 07)
B37: MYT11311 (antibody, V domains shown)
VH: B11 VH with H61S
VL: B11 VL with N31H
notes: MYT9792 variant, His at VL 31 (L1 08)

target: T1, Human PTK7 Protein, His Tag, Acro …; test: BLI (Octet), antibody on anti-human Fc sensor, 50 nM PTK7, dissociation at pH 7.4 or 5.4; 2 = substantially similar binding relative to parent

Binding result, binds:
B1
B2
B3
B4
B5
B6
B7
B8
B9
B10

target: T2, Human PTK7 Protein, His Tag, Acro …; test: BLI, anti-human Fc capture, 50 nM PTK7; 2 = substantially similar binding relative to parent

Binding result, binds:
B11
B12
B13
B14
B15
B16
B17
B18
B19
B20
B21
B22
B23
B24
B25
B26
B27
B28
B29
B30
B31
B32
B33
B34
B35
B36
B37
